Data on 3 molecules can be found in paper PMC2996635 (Journal of immunology (Baltimore, Md. : 1950), 2010).

Holding throughout (assay): SEC
A general note: Size exclusion chromatography separates by hydrodynamic size, large species first.

The target of series [1] is hrCD5-His (human CD5 domain 1 and rat CD5 domains 2 and 3, His tag) (human | rat).
For series [2], the target named is mCD5-His (extracellular region of mouse CD5 fused to a His tag) (mouse).
The series “SEC” deals with the molecule itself.

The stoichiometry N is a count of units in the complex or per binding partner.

Consider “hrCD5-His (human CD5 domain 1 and rat CD5 domains 2 and 3, His tag)”, for which, in series [1], the stoichiometry N is 2. “mCD5-His (extracellular region of mouse CD5 fused to a His tag) (domain or fragment)” displayed a stoichiometry N in series [2] of 2.

B1: hCD5-His (extracellular region of human CD5 fused to a His tag) (domain or fragment, UniProt P06127 25-372, looked up)
chain: RLSWYDPDFQARLTRSNSKCQGQLEVYLKDGWHMVCSQSWGRSSKQWEDPSQASKVCQRLNCGVPLSLGPFLVTYTPQSSIICYGQLGSFSNCSHSRNDMCHSLGLTCLEPQKTTPPTTRPPPTTTPEPTAPPRLQLVAQSGGQHCAGVVEFYSGSLGGTISYEAQDKTQDLENFLCNNLQCGSFLKHLPETEAGRAQDPGEPREHQPLPIQWKIQNSSCTSLEHCFRKIKPQKSGRVLALLCSGFQPKVQSRLVGGSSICEGTVEVRQGAQWAALCDSSSARSSLRWEEVCREQQCGSVNSYRVLDAGDPTSRGLFCPHQKLSQCHELWERNSYCKKVFVTCQDPNP
With B1, the “stoichiometry N” value in the series “SEC” is 2.
